Measured values published in patent US20100111941A1, “METHODS FOR TREATING CANCER” (priority 2006, published 2010).

Experiments:
[1] = tested on: HCT116 tumor xenografts (human colorectal cancer cells); details: for tumor weight reduced by, compared to vehicle control: day 14, rNAPc2/pro 300 μg/kg daily IP, 5-FU 10 mg/kg every-other-day IP, AVASTIN 0.5 mg/kg twice-weekly IP, 14 days, 6 mice/group
Method: To determine the effect of rNAPc2/pro in combination with 5-fluorouracil (5-FU) in colorectal cancer, a murine xenograft colorectal tumor model was used. Human colorectal cancer cells (HCT116) were cultured in DMEM medium supplemented with 10% fetal bovine serum (FBS), harvested at log growth phase, enumerated and resuspended in HBSS buffer. Eight to ten week old female nude mice (NU/NU) were inoculated subcutaneously with 1×10^7 cells/mouse in a volume of 100 μl. Tumors were allowed to develop to an average size of 50 to 100 mm^3 before the treatment started (defined as day 0). HCT116 tumor xenograft-bearing mice were randomized into various treatment conditions and the treatment regimens lasted for 14 days.
The mice were treated as follows (6 mice/group):
2)rNAPc2/pro (300 μg/kg, daily IP injection for 14 days);
3) LOVENOX® (1.5 mg/kg, daily IP injection for 14 days);
4) 5-FU (10 mg/kg, every-other-day IP injection for 14 days);
5) AVASTIN® (0.5 mg/kg, twice-weekly IP injection for 14 days);
10) LOVENOX®+AVASTIN®; and
The mice were monitored every-other-day for body weight, signs of morbidity (i.e., hemorrhage) and mortality. On day 14, mice were extirpated for HCT116 tumor xenografts and the tumors were weighed and measured. Tumor size was calculated as follows: tumor volume (size)=(length)×(width^2)/2 (mm^3).

[2] = tested on: Human colorectal cancer cells (HCT116); assay: murine colorectal cancer-hepatic metastasis mouse model (HCT116); format: in vivo, nude mice (NU/NU); details: for Hepatic metastasis-free events: rNAPc2/pro 300 μg/kg daily IP for 28 days, CPT-11 100 mg/kg once-weekly IP for 4 weeks, livers removed day 42, 8 mice/group
Method: To determine the effect of rNAPc2/pro in treating hepatic tumor metastasis, a murine colorectal cancer-hepatic metastasis mouse model was used.
(§1) The mice were treated as follows (8 mice/group):
2) HCT116/vehicle control;
3) HCT116/rNAPc2/pro (300 μg/kg, daily IP injection for 28 days);
4) HCT116/CPT-11 (100 mg/kg, once-weekly IP injection for 4 weeks); and
On day 42, the livers were surgically removed, weighed and the number of liver surface metastases were counted in a blinded fashion. The other internal organs were examined for signs of hemorrhage. […] In some of the mice, no hepatic metastases were observed (Table 2).

[3] = tested on: lung carcinoma tumors and melanoma tumors; details: mouse models; Hembrough et al., Cancer Res. 63:2997-3000 (2003); cited from earlier work
angiogenesis = details: Hembrough et al., Cancer Res. 63:2997-3000 (2003); cited from earlier work
fVIIa/TF complex = target: T1, fVIIa/TF complex (Homo sapiens, UniProt P08709+P13726); details: when fXa, or a catalytically active or inactive derivative thereof, is present; cited from earlier work
T1 construct: Lyophilized, purified, recombinant human fVlla is reconstituted in HBS
T1 sequence (P08709 213-466 limits assumed): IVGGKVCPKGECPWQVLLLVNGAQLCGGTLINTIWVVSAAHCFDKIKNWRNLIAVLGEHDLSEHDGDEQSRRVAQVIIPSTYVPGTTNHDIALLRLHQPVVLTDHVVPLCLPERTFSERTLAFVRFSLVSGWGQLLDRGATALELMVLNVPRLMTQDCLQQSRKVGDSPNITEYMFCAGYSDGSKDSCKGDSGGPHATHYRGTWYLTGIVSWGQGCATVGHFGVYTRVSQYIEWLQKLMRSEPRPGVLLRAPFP
T1 sequence (P08709 61-212 limits assumed): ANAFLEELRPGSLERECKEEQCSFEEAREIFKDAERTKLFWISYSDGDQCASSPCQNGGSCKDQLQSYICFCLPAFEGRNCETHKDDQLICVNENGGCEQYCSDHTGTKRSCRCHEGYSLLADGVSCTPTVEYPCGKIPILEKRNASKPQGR
T1 sequence (P13726 33-295): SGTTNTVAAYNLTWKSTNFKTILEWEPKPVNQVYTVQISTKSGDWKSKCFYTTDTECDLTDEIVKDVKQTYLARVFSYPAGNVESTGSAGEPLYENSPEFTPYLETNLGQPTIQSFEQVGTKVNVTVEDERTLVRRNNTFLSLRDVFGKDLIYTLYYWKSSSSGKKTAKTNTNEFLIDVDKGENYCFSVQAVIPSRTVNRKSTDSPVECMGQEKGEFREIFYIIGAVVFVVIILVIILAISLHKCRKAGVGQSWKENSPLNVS
T1 sequence (P00742 235-488 partner limits assumed): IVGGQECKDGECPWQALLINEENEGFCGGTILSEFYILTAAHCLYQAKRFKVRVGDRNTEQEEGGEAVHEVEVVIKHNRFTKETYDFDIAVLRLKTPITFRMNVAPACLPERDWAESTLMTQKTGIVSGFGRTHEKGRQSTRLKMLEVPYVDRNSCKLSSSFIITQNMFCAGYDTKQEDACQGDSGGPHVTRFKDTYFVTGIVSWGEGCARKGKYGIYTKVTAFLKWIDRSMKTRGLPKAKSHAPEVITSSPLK
T1 sequence (P00742 41-179 partner limits assumed): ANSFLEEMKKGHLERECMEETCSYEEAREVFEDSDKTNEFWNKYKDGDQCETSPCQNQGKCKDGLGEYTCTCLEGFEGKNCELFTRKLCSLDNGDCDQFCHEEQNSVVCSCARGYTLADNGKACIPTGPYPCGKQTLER

[4] = tested on: intestinal adenomas and adenocarcinomas; assay: murine spontaneous intestinal neoplasia mouse model (Min mouse)
Method: To determine the effect of rNAPc2/pro in treating intestinal adenomas and adenocarcinomas, a murine spontaneous intestinal neoplasia mouse model was used: the Min mouse (The Jackson Laboratory, Bar Harbor, Me., USA).
Four to five week old Apc^Min/+ or syngenic wild-type control (age- and sex-matched) were randomized into various treatment conditions and the treatment regimens lasted for 10 to 11 weeks.
The mice were treated as follows:
1) Wild-type/vehicle control (3 mice);
2) Wild-type/rNAPc2/pro (100 μg/kg, daily IP injection) (3 mice);
3) Apc^Min/+/vehicle control (6 mice);
4) Apc^Min/+/rNAPc2/pro (6 mice); and
5) Apc^Min/+/LOVENOX® (500 μg/kg, daily IP injection) (6 mice).
The mice were monitored every-other-day for body weight, signs of morbidity (i.e. hemorrhage) and mortality. On week 16, the intestines were removed, separated into proximal, middle and distal small intestine and colon, formed into “Swiss rolls” and processed for analysis. Mice were injected with 4 mg/mouse BrdU 2 h prior to harvest.

[5] = tested on: Murine colorectal cancer cells (CT26); assay: murine colorectal cancer-pulmonary metastasis mouse model (CT26); format: in vivo, BALB/c mice; details: for Number of mice with no observable lung surface metastases: 8 mice/group
Method: To determine the effect of rNAPc2/pro in treating pulmonary tumor metastasis, a murine colorectal cancer-pulmonary metastasis mouse model was used. […] Nine to eleven week old female syngenic BALB/c mice were inoculated via tail vein injection with 1×10^6 cells/mouse in a volume of 100 μl (defined as day 0).
as §1
3) CT26/rNAPc2/pro (10 μg/kg/day);
4) CT26/rNAPc2/pro (30 μg/kg/day);
5) CT26/rNAPc2/pro (100 μg/kg/day);
6) CT26/rNAPc2/pro (300 μg/kg/day);
7) CT26/rNAPc2/pro (1 mg/kg/day);
8) CT26/rNAPc2/pro (2.5 mg/kg/day); and
9) CT26/LOVENOX® (1.5 mg/kg/day, IP injection).
On day 11, the lungs were surgically removed, weighed and the number of lung surface metastases were counted in a blinded fashion. The other internal organs were examined for signs of hemorrhage. […] In some of the mice, no lung surface metastases were observed (Table 1). rNAPc2/pro was well-tolerated up to 2.5 mg/kg/day in mice with no hemorrhage-related mortality. […] No significant difference in animal body weight was observed between all experimental groups.

Factor Xa = target: T2, Factor Xa (Homo sapiens, UniProt P00742); details: selective = at least 10-fold higher potency than on related enzymes; cited from earlier work
T2 construct: made in house
T2 sequence (P00742 235-488 limits assumed): as the sequence (P00742 235-488 partner limits assumed) above
T2 sequence (P00742 41-179 limits assumed): as the sequence (P00742 41-179 partner limits assumed) above

## O=c1[nH]cc(F)c(=O)[nH]1 [5-FU, 5-fluorouracil, reference compound]
[1]
  tumor weight reduced by, compared to vehicle control: 41%

## CCc1c2c(nc3ccc(OC(=O)N4CCC(N5CCCCC5)CC4)cc13)-c1cc3c(c(=O)n1C2)COC(=O)[C@]3(O)CC [CPT-11, irinotecan, reference compound]
[2]
  Hepatic metastasis-free events: 0%

## TFPI: reported with rNAPc2 by Hembrough et al. to decrease tumor growth in mouse models [reference compound]
[3]
  growth of lung carcinoma tumors and melanoma tumors: allegedly decrease the growth

## AVASTIN®: anti-VEGF antibody bevacizumab (Genentech) [reference compound]
[1]
  tumor weight reduced by, compared to vehicle control: 63%

B1: rNAPc2: recombinant protein of the NAP family, single chain, non-glycosylated 85 amino acid protein (SEQ ID NO: 3) (protein, listed as Ancylostoma caninum)
chain: KATMQCGENEKYDSCGSKECDKKCKYDGVEEEDDEEPNVPCLVRVCHQDCVCEEGFYRNKDDKCVSAEDCELDNMDFIYPGTRN
[3]
  growth of lung carcinoma tumors and melanoma tumors: allegedly decrease the growth
angiogenesis
  inhibition of angiogenesis: potent inhibitor of angiogenesis
fVIIa/TF complex
  selective inhibition of the fVIIa/TF complex: selective inhibition of the fVIIa/TF complex
[4]; Apc^Min/+ mice, 100 μg/kg daily IP, long-term administration (10 to 11 weeks), analysis on week 16
  formation of intestinal adenomas and adenocarcinomas: suppressed formation of intestinal adenomas and adenocarcinomas
[4]; dosing regimens used in these studies, recipient mice
  tolerability (major hemorrhage or other adverse effects): well-tolerated up to a three month period

B2: rNAPc2/pro: recombinant protein having the amino acid sequence of rNAPc2 modified to add a proline residue to the C-terminus (SEQ ID NO: 4) (protein, listed as Ancylostoma caninum)
chain: KATMQCGENEKYDSCGSKECDKKCKYDGVEEEDDEEPNVPCLVRVCHQDCVCEEGFYRNKDDKCVSAEDCELDNMDFIYPGTRNP
[1]
  tumor weight reduced by, compared to vehicle control: 31%
[1]; doses and dosing regimens of rNAPc2/pro used in the murine model of colorectal cancer
  tolerability (hemorrhage or other adverse effects): well tolerated by the recipient mice without major complications of hemorrhage or other adverse effects
[5]; 10 μg/kg/day, day 11
  Number of mice with no observable lung surface metastases: 1
[5]; 30 μg/kg/day, day 11
  Number of mice with no observable lung surface metastases: 0
[5]; 100 μg/kg/day, day 11
  Number of mice with no observable lung surface metastases: 1
[5]; 300 μg/kg/day, day 11
  Number of mice with no observable lung surface metastases: 1
[5]; 1 mg/kg/day, day 11
  Number of mice with no observable lung surface metastases: 0
[5]; 2.5 mg/kg rNAPc2/pro, 1.5 mg/kg LOVENOX, some of the mice
  local hemorrhage in internal organs: some local hemorrhage was noticed in internal organs
[5]; 2.5 mg/kg/day, day 11
  Number of mice with no observable lung surface metastases: 1
[5]; compared to saline control mice, dose-dependent (10 μg/kg/day to 2.5 mg/kg/day), day 11, FIG. 8
  number of lung surface metastases: reduced the number of lung surface metastases
[5]; compared to saline control mice, dose-dependent, day 11, FIG. 9
  lung mass: reduced lung mass
[5]; mice, 11 days of treatment
  dose well-tolerated with no hemorrhage-related mortality: up to 2.5 mg/kg/day
[2]; 300 μg/kg daily IP for 28 days, compared to vehicle control mice, day 42, FIG. 10
  number of liver surface metastases: reduced the number of liver surface metastases
[2]; 300 μg/kg daily IP for 28 days, compared to vehicle control mice, day 42, FIG. 11
  liver mass: reduced liver mass
[2]
  Hepatic metastasis-free events: 0%
[2]; rNAPc2/pro 300 μg/kg daily IP in combination with CPT-11 100 mg/kg once-weekly IP
  effect with CPT-11 in inhibiting hepatic metastases: synergistic effect
fVIIa/TF complex
  selective inhibition of the fVIIa/TF complex: selective inhibition of the fVIIa/TF complex

B3: NAP5: 77-amino acid NAP protein (SEQ ID NO: 1) originally isolated from the hookworm Ancylostoma caninum (protein, listed as Ancylostoma caninum)
chain: KAYPECGENEWLDDCGTQKPCEAKCNEEPPEEEDPICRSRGCLLPPACVCKDGFYRDTVIGDCVREEECDQHEIIHV
Factor Xa
  selective inhibition of Factor Xa: selective inhibition of Factor Xa

B4: NAP6: 75-amino acid NAP protein (SEQ ID NO: 2) originally isolated from the hookworm Ancylostoma caninum (protein, listed as Ancylostoma caninum)
chain: LAYPECGENEWLDVCGTKKPCEAKCSEEEEEDPICRSFSCPGPAACVCEDGFYRDTVIGDCVKEEECDQHEIIHV
Factor Xa
  selective inhibition of Factor Xa: selective inhibition of Factor Xa
